IntAct's records for PubMed 19494114

B1: Receptor-type tyrosine-protein phosphatase eta (Homo sapiens), Q12913 (parent)
chain: MKPAAREARLPPRSPGLRWALPLLLLLLRLGQILCAGGTPSPIPDPSVATVATGENGITQISSTAESFHKQNGTGTPQVETNTSEDGESSGANDSLRTPEQGSNGTDGASQKTPSSTGPSPVFDIKAVSISPTNVILTWKSNDTAASEYKYVVKHKMENEKTITVVHQPWCNITGLRPATSYVFSITPGIGNETWGDPRVIKVITEPIPVSDLRVALTGVRKAALSWSNGNGTASCRVLLESIGSHEELTQDSRLQVNISGLKPGVQYNINPYLLQSNKTKGDPLGTEGGLDASNTERSRAGSPTAPVHDESLVGPVDPSSGQQSRDTEVLLVGLEPGTRYNATVYSQAANGTEGQPQAIEFRTNAIQVFDVTAVNISATSLTLIWKVSDNESSSNYTYKIHVAGETDSSNLNVSEPRAVIPGLRSSTFYNITVCPVLGDIEGTPGFLQVHTPPVPVSDFRVTVVSTTEIGLAWSSHDAESFQMHITQEGAGNSRVEITTNQSIIIGGLFPGTKYCFEIVPKGPNGTEGASRTVCNRTVPSAVFDIHVVYVTTTEMWLDWKSPDGASEYVYHLVIESKHGSNHTSTYDKAITLQGLIPGTLYNITISPEVDHVWGDPNSTAQYTRPSNVSNIDVSTNTTAATLSWQNFDDASPTYSYCLLIEKAGNSSNATQVVTDIGITDATVTELIPGSSYTVEIFAQVGDGIKSLEPGRKSFCTDPASMASFDCEVVPKEPALVLKWTCPPGANAGFELEVSSGAWNNATHLESCSSENGTEYRTEVTYLNFSTSYNISITTVSCGKMAAPTRNTCTTGITDPPPPDGSPNITSVSHNSVKVKFSGFEASHGPIKAYAVILTTGEAGHPSADVLKYTYEDFKKGASDTYVTYLIRTEEKGRSQSLSEVLKYEIDVGNESTTLGYYNGKLEPLGSYRACVAGFTNITFHPQNKGLIDGAESYVSFSRYSDAVSLPQDPGVICGAVFGCIFGALVIVTVGGFIFWRKKRKDAKNNEVSFSQIKPKKSKLIRVENFEAYFKKQQADSNCGFAEEYEDLKLVGISQPKYAAELAENRGKNRYNNVLPYDISRVKLSVQTHSTDDYINANYMPGYHSKKDFIATQGPLPNTLKDFWRMVWEKNVYAIIMLTKCVEQGRTKCEEYWPSKQAQDYGDITVAMTSEIVLPEWTIRDFTVKNIQTSESHPLRQFHFTSWPDHGVPDTTDLLINFRYLVRDYMKQSPPESPILVHCSAGVGRTGTFIAIDRLIYQIENENTVDVYGIVYDLRMHRPLMVQTEDQYVFLNQCVLDIVRSQKDSKVDLIYQNTTAMTIYENLAPVTTFGKTNGYIA

Variants of: B1
Settings: with mk03_human MAPK3, P27361
Chain of mk03_human MAPK3, P27361 (P27361 whole entry): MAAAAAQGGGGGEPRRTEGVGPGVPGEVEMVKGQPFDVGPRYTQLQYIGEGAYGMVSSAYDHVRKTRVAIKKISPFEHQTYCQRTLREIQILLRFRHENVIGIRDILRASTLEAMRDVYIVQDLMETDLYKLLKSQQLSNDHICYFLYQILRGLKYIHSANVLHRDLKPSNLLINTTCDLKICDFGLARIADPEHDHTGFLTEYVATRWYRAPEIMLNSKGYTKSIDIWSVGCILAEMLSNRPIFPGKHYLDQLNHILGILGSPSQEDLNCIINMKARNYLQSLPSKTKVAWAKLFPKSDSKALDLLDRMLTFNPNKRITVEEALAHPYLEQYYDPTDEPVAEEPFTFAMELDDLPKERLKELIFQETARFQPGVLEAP

Row | effect of a mutation on the interaction | Variant
1 | decreasing interaction | K1031A
